Columns and labels:
[1] = Appearance of 1.5% peptide solutions with various salts at room temperature; assay type: physicochemical; conditions: for Appearance: room temperature
Protocol: The effect of salt ionic strength level on the properties of peptide solutions was evaluated to identify optimized salt ionic strength levels for the peptides as described herein. Increasing the salt ionic strength level of PuraMatrix® and other peptides may generally improve its function and mechanical strength for various clinical applications. To adjust the salt ionic strength of the peptide solutions by way of example, various salt buffer solutions including NaCl, KCl, MgCl2, CaCl2 and DPBS (10×) were added to 2 mL of 1.5% peptide solutions.

[2] = Rheological properties at adjusted salt ionic strength; assay type: physicochemical
Protocol: Based on the visual observation of the effect of salt ionic strength on the properties of the peptide solutions, the effect on the rheological properties of the peptide solutions after adjusting their ionic strength level with NaCl to 0.7 M (PuraMatrix®), 0.2 M (KLD12) or 0.02 M (IEIK13), which is closely below the critical ionic strength at which each peptide becomes cloudy, was evaluated. If the ionic strength levels with NaCl of peptide solutions are higher than 0.9 M (PuraMatrix®), 0.3 M (KLD12) or 0.03 M (IEIK13), the peptide solution begin phase separation becoming cloudy and weak. The rheological property of PuraMatrix®, KLD12 and IEIK13 solutions was higher after adjusting their ionic strength level with NaCl to 0.7 M (PuraMatrix®), 0.2 M (KLD12) or 0.02 M (IEIK13), The results are shown in FIG. 10 for KLD12 1%, FIG. 11 for IEIK13 1%, and FIG. 12 for PuraMatrix® 1%, respectively. Frequency sweep tests were performed from 1 rad/s to 10 rad/s at 1 Pa.
Based on the results of the effect on the rheological properties of the peptide solutions after adjusting their ionic strength level with NaCl to 0.7 M (PuraMatrix®), 0.2 M (KLD12) or 0.02 M (IEIK13), the effect on the rheological properties of the peptide solution at various salt ionic strengths was evaluated. […] The results are shown in FIG. 13 for PuraMatrix® 1% solution and in FIG. 14 for IEIK13 1% solution. Frequency sweep tests were performed from 1 rad/sec to 10 rad/sec at 1 Pa and the storage modulus at 1 rad/sec was selected for data.
Based on the results of the effect on the rheological properties of the peptide solutions after adjusting their ionic strength levels, the effect on the rheological properties of the peptide hydrogels after DMEM treatment for 10 min was evaluated. […] The results are shown in FIG. 15 for PuraMatrix® 1% hydrogels and in FIG. 16 for IEIK13 1% hydrogels, both after DMEM treatment for 10 min. Frequency sweep tests were performed from 1 rad/sec to 10 rad/sec at 1 Pa and the storage modulus at 1 rad/sec was selected for data.
Based on the results of the effect on the rheological properties of the peptide solutions and hydrogels after adjusting their ionic strength levels with NaCl, the effect of various salts (KCl, MgCl2, and CaCl2) was also evaluated. The rheological property of PuraMatrix® solutions increases with ionic strength adjustment at 0.15 M of all the salts. Increases of the rheological property of PuraMatrix® solutions with various salts were not predominantly different. However, increases of the rheological property of PuraMatrix® solutions may vary depending on the salting out constant, K of each salt. Constant K is a constant in Cohen's equation: log S=B−KI, where S is solubility, B is idealized solubility, K is salting out constant, and I is ionic strength. With a higher value of constant K and ionic strength of salts, solubility of the peptide may decrease resulting in strong peptide self-assembly with increased hydrophobic effect and higher rheological properties of the peptide solution. The constant K of NaCl may be higher than the other salts. […] The results are shown in FIG. 17 for PuraMatrix® 1% solution before DMEM treatment, and in FIG. 18 for PuraMatrix® 1% hydrogels after DMEM treatment for 10 min.
In accordance with one or more embodiments, IEIK13, KLD12, and PuraMatrix® may be dissolved both in salt buffer such as NaCl and at an elevated pH level adjusted with alkali salt buffer such as NaOH to keep their salt ionic strength under their critical salt points as well as their pH level to about 2.5˜4.0, so that they may have stiffer properties. With respect to PuraMatrix®, […] and IEIK13, the peptide solutions are still clear with 0.9% NaCl (ionic strength: 0.15 M) at pH 3.4 adjusted with NaOH. […] The effect of salt ionic strength and pH adjustment on the rheological properties of PuraMatrix® 2.5% solution are shown in FIG. 20. […]

With “Arg-Ala-Asp-Ala-Arg-Ala-Asp-Ala-Arg-Ala-Asp-Ala-Arg-Ala-Asp-Ala [PuraMatrix®]” the Appearance ([1]; PuraMatrix ® 0.5%, DPBS (pH 3.2) 1.0 M, ionic strength 1.0 M) was “Cloudy, phase-separated”, the Appearance ([1]; PuraMatrix ® 0.55%, DPBS (pH 3.2) 0.95 M, ionic strength 0.95 M) was “Slightly cloudy, brittle gel” and the Appearance ([1]; PuraMatrix ® 0.6%, DPBS (pH 3.2) 0.9 M, ionic strength 0.9 M) was “Clear, thick, stiffer gel”. For the same substance, the Appearance ([1]; PuraMatrix ® 0.75%, DPBS (pH 3.2) 0.75 M, ionic strength 0.75 M) was “Clear, thick, stiffer gel”, the Appearance ([1]; PuraMatrix ® 0.9%, DPBS (pH 3.2) 0.6 M, ionic strength 0.6 M) was “Clear, thick, stiffer gel” and the Appearance ([1]; PuraMatrix ® 0.93%, KCl 1.15 M, ionic strength 1.15 M) was “Cloudy, phase-separated”. The Appearance ([1]; PuraMatrix ® 0.95%, KCl 1.1 M, ionic strength 1.1 M) was “Slightly cloudy, brittle gel”, the Appearance ([1]; PuraMatrix ® 0.98%, KCl 1.05 M, ionic strength 1.05 M) was “Slightly cloudy, thick, stiffer gel” and the Appearance ([1]; PuraMatrix ® 1.0%, KCl 1.0 M, ionic strength 1.0 M) was “Clear, thick, stiffer gel”. For the same substance, the Appearance ([1]; PuraMatrix ® 1.0%, NaCl 1.0 M, ionic strength 1.0 M) was “Cloudy, phase-separated”, the Appearance ([1]; PuraMatrix ® 1.03%, KCl 0.95 M, ionic strength 0.95 M) was “Clear, thick, stiffer gel” and the Appearance ([1]; PuraMatrix ® 1.03%, NaCl 0.95 M, ionic strength 0.95 M) was “Cloudy, phase-separated”. For the same substance, the Appearance ([1]; PuraMatrix ® 1.05%, DPBS (pH 3.2) 0.45 M, ionic strength 0.45 M) was “Clear, thick, stiffer gel”, the Appearance ([1]; PuraMatrix ® 1.05%, KCl 0.9 M, ionic strength 0.9 M) was “Clear, thick, stiffer gel” and the Appearance ([1]; PuraMatrix ® 1.05%, NaCl 0.9 M, ionic strength 0.9 M) was “Slightly cloudy, brittle gel”. The Appearance ([1]; PuraMatrix ® 1.08%, NaCl 0.85 M, ionic strength 0.85 M) was “Clear, thick, stiffer gel”, the Appearance ([1]; PuraMatrix ® 1.10%, NaCl 0.8 M, ionic strength 0.8 M) was “Clear, thick, stiffer gel” and the Appearance ([1]; PuraMatrix ® 1.13%, KCl 0.75 M, ionic strength 0.75 M) was “Clear, thick, stiffer gel”. The Appearance ([1]; PuraMatrix ® 1.13%, NaCl 0.75 M, ionic strength 0.75 M) was “Clear, thick, stiffer gel”, the Appearance ([1]; PuraMatrix ® 1.2%, DPBS (pH 3.2) 0.3 M, ionic strength 0.3 M) was “Clear, thick, stiffer gel” and the Appearance ([1]; PuraMatrix ® 1.2%, KCl 0.6 M, ionic strength 0.6 M) was “Clear, thick, stiffer gel”. For the same substance, the Appearance ([1]; PuraMatrix ® 1.2%, NaCl 0.6 M, ionic strength 0.6 M) was “Clear, thick, stiffer gel”, the Appearance ([1]; PuraMatrix ® 1.27%, KCl 0.45 M, ionic strength 0.45 M) was “Clear, thick, stiffer gel” and the Appearance ([1]; PuraMatrix ® 1.27%, NaCl 0.45 M, ionic strength 0.45 M) was “Clear, thick, stiffer gel”. For the same substance, the Appearance ([1]; PuraMatrix ® 1.28%, CaCl2 0.433 M, ionic strength 1.3 M) was “Cloudy, phase-separated”, the Appearance ([1]; PuraMatrix ® 1.28%, MgCl2 0.433 M, ionic strength 1.3 M) was “Cloudy, phase-separated” and the Appearance ([1]; PuraMatrix ® 1.29%, CaCl2 0.417 M, ionic strength 1.25 M) was “Slightly cloudy, brittle gel”. The Appearance ([1]; PuraMatrix ® 1.29%, MgCl2 0.417 M, ionic strength 1.25 M) was “Slightly cloudy, brittle gel”, the Appearance ([1]; PuraMatrix ® 1.3%, CaCl2 0.4 M, ionic strength 1.2 M) was “Slightly cloudy, thick, stiffer gel” and the Appearance ([1]; PuraMatrix ® 1.3%, MgCl2 0.4 M, ionic strength 1.2 M) was “Slightly cloudy, thick, stiffer gel”. The Appearance ([1]; PuraMatrix ® 1.31%, CaCl2 0.383 M, ionic strength 1.15 M) was “Clear, thick, stiffer gel”, the Appearance ([1]; PuraMatrix ® 1.31%, MgCl2 0.383 M, ionic strength 1.15 M) was “Clear, thick, stiffer gel” and the Appearance ([1]; PuraMatrix ® 1.32%, CaCl2 0.35 M, ionic strength 1.05 M) was “Clear, thick, stiffer gel”. The Appearance ([1]; PuraMatrix ® 1.32%, MgCl2 0.35 M, ionic strength 1.05 M) was “Clear, thick, stiffer gel”, the Appearance ([1]; PuraMatrix ® 1.35%, CaCl2 0.3 M, ionic strength 0.9 M) was “Clear, thick, stiffer gel” and the Appearance ([1]; PuraMatrix ® 1.35%, DPBS (pH 3.2) 0.15 M, ionic strength 0.15 M) was “Clear, thick, stiffer gel”. For the same substance, the Appearance ([1]; PuraMatrix ® 1.35%, KCl 0.3 M, ionic strength 0.3 M) was “Clear, thick, stiffer gel”, the Appearance ([1]; PuraMatrix ® 1.35%, MgCl2 0.3 M, ionic strength 0.9 M) was “Clear, thick, stiffer gel” and the Appearance ([1]; PuraMatrix ® 1.35%, NaCl 0.3 M, ionic strength 0.3 M) was “Clear, thick, stiffer gel”. The Appearance ([1]; PuraMatrix ® 1.38%, CaCl2 0.25 M, ionic strength 0.75 M) was “Clear, thick, stiffer gel”, the Appearance ([1]; PuraMatrix ® 1.38%, MgCl2 0.25 M, ionic strength 0.75 M) was “Clear, thick, stiffer gel” and the Appearance ([1]; PuraMatrix ® 1.4%, CaCl2 0.2 M, ionic strength 0.6 M) was “Clear, thick, stiffer gel”. The Appearance ([1]; PuraMatrix ® 1.4%, MgCl2 0.2 M, ionic strength 0.6 M) was “Clear, thick, stiffer gel”, the Appearance ([1]; PuraMatrix ® 1.43%, CaCl2 0.15 M, ionic strength 0.45 M) was “Clear, thick, stiffer gel” and the Appearance ([1]; PuraMatrix ® 1.43%, KCl 0.15 M, ionic strength 0.15 M) was “Clear, thick, stiffer gel”. The Appearance ([1]; PuraMatrix ® 1.43%, MgCl2 0.15 M, ionic strength 0.45 M) was “Clear, thick, stiffer gel”, the Appearance ([1]; PuraMatrix ® 1.43%, NaCl 0.15 M, ionic strength 0.15 M) was “Clear, thick, stiffer gel” and the Appearance ([1]; PuraMatrix ® 1.45%, CaCl2 0.1 M, ionic strength 0.3 M) was “Clear, thick, stiffer gel”. For the same substance, the Appearance ([1]; PuraMatrix ® 1.45%, MgCl2 0.1 M, ionic strength 0.3 M) was “Clear, thick, stiffer gel”, the Appearance ([1]; PuraMatrix ® 1.48%, CaCl2 0.05 M, ionic strength 0.15 M) was “Clear, thick, stiffer gel” and the Appearance ([1]; PuraMatrix ® 1.48%, MgCl2 0.05 M, ionic strength 0.15 M) was “Clear, thick, stiffer gel”. For the same substance, the Appearance ([1]; PuraMatrix ® 1.5%, CaCl2 0 M, ionic strength 0 M) was “Clear, thick gel”, the Appearance ([1]; PuraMatrix ® 1.5%, DPBS (pH 3.2) 0 M, ionic strength 0 M) was “Clear, thick gel” and the Appearance ([1]; PuraMatrix ® 1.5%, KCl 0 M, ionic strength 0 M) was “Clear, thick gel”. The Appearance ([1]; PuraMatrix ® 1.5%, MgCl2 0 M, ionic strength 0 M) was “Clear, thick gel”, the Appearance ([1]; PuraMatrix ® 1.5%, NaCl 0 M, ionic strength 0 M) was “Clear, thick gel” and the “salt ionic strength increase that did not change the clear color of the solution (apparent stiffness increased)” value ([1]; depending on different salts, 1.5% peptide solutions) was 0.85˜1.15 M. The “ionic strength adjustment up to which the rheological property of hydrogels increased (decreases above)” value ([2]; 1% hydrogels after DMEM treatment for 10 min) was “up to 0.7 M”, the “rheological property of hydrogels with ionic strength adjustment with various salts” value ([2]; 1% hydrogels after DMEM treatment for 10 min, 0.15 M ionic strength) was “comparable to increases of the rheological property of PuraMatrix® solutions with various salts” and the “rheological property of solutions with NaCl compared with other salts” value ([2]; 1% solution, 0.15 M ionic strength) was “slightly higher than those with KCl and CaCl2”. For the same substance, the “rheological property of solutions with ionic strength adjustment” value ([2]; 1% solution, 0.15 M ionic strength of all the salts (NaCl, KCl, MgCl2, CaCl2)) was “increases”, the “ionic strength adjustment up to which the rheological property of the solution increases (decreases above)” value ([2]; 1% solutions, storage modulus at 1 rad/sec) was “up to 0.7 M” and the rheological property ([2]; 2.5% solution with 0.9% NaCl (ionic strength: 0.15 M) at pH 3.4) was “stiffer than those of PuraMatrix control and PuraMatrix with only NaCl 0.9%”. The “ionic strength level with NaCl above which the solution begins phase separation becoming cloudy and weak” value ([2]; NaCl) was “higher than 0.9 M”.
